Experiments:
[1] = target: biotinylated mouse MCL1 (amino acids 152-308) (mouse) (UniProt P97287); test: SPR
[2] = target: MCL1 (UniProt P97287); test: SPR

Row | Substance | Kd [1] [nM] | Kd [2] [nM]
1 | PUMA27 I137tBu (peptide) | 7 | 
2 | PUMA 27-aa wild-type peptide (pseudo wild-type, M144A) |  | 4
3 | rPUMA (redesigned PUMA peptide: A139tBu, Q140Y, A144Cha, A145G, Y152Bzt) |  | < 0.16

From PMC6205457
